Measured values reported in publication doi:10.1101/2020.12.02.408153 (bioRxiv, 2020).

Biological target: SARS-CoV-2 open reading frame (ORF) 8 (SARS-CoV-2, UniProt P0DTC8 16-121)
Experiment: SPR

SARS-CoV-2 open reading frame (ORF) 8, sequence (P0DTC8 16-121): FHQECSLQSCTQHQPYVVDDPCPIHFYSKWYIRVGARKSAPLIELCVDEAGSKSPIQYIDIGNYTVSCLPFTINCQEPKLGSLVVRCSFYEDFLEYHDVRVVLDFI

Binder: LLGDFFRKSKEKIGKEFKRIVQRIKDFLRNLVPRTES [LL-37]
- Kd: 290 nM
